Experimental data: article PMC6793842 (PLoS Biology, 2019)
Where a chain is given by its changes, count along the chain named.

T1: P. falciparum P113, biotinylated bait (P. falciparum, UniProt Q8ILP3 23-945, biotin (enzymatic monobiotinylation; site not stated))
T1 construct: source: HEK293E, transient transfection, secreted; enzymatically monobiotinylated bait
T1 sequence: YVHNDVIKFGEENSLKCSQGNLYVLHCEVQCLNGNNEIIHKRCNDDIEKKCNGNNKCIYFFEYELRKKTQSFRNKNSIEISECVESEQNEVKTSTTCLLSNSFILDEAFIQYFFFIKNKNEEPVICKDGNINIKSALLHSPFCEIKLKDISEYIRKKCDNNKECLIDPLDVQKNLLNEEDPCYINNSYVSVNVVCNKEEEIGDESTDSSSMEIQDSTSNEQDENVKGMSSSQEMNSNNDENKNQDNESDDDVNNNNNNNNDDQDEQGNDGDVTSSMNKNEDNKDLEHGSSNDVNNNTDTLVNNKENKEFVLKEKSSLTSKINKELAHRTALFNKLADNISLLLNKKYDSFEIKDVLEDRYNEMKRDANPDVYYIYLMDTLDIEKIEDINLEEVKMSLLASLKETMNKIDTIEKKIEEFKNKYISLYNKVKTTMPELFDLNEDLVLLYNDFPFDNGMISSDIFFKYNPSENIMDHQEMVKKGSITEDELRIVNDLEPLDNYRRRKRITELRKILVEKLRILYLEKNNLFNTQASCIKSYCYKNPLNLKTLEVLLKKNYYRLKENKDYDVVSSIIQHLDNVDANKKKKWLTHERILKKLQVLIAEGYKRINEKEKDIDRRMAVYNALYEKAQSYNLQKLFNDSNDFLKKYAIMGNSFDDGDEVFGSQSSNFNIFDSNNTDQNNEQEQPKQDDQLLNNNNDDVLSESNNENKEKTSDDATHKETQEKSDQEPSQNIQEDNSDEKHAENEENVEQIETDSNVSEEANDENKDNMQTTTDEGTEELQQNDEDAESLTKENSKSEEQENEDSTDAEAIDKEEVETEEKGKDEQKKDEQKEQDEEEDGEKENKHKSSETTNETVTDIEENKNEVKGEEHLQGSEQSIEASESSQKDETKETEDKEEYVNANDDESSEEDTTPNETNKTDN

T2: P. falciparum RH5 (reticulocyte-binding protein homologue 5) (P. falciparum (3D7), UniProt Q8IFM5 25-526)
T2 sequence: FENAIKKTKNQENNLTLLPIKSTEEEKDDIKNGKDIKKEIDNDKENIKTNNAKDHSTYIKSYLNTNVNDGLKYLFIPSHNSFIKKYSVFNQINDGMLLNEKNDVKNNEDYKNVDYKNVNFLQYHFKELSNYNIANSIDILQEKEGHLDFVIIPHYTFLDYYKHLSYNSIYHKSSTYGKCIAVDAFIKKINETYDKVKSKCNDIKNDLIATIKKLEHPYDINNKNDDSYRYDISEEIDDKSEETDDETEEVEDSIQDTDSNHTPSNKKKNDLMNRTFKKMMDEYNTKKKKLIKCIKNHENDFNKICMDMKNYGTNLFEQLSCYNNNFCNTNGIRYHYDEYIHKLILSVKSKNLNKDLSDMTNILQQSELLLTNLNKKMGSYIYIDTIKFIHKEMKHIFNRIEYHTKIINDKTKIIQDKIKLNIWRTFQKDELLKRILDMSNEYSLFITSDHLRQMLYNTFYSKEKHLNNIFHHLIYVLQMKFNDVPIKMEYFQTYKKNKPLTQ

B1: introgressed ancestral RH5 (reticulocyte-binding protein homologue 5) (ligand)
chain: T2 sequence with H124D, S173Y, Y176H, C179Y, T192R, K195Q
B2: P. falciparum RH5 (reticulocyte-binding protein homologue 5) (ligand)
chain: T2 sequence
B3: human basigin, entire ectodomain (receptor)
chain: EPGTVFTTVEDLGSKILLTCSLNDSATEVTGHRWLKGGVVLKEDALPGQKTEFKVDSDDQWGEYSCVFLPEPMGTANIQLHGPPRVKAVKSSEHINEGETAMLVCKSESVPPVTDWAWYKITDSEDKALMNGSESRFFVSSSQGRSELHIENLNMEADPGQYRCNGTSSKGSDQAIITLRVRSHLAAL
modifications: enzymatically monobiotinylated
notes: also called HsBSG; BSG; source: HEK293E, transient transfection, secreted, enzymatically monobiotinylated
B4: chimpanzee basigin, entire ectodomain (receptor)
chain: ASGAAGTVFTTVEDLGSKILLTCYMNDSATEVTGHRWLKGGVVLEEDALPGQKTEFKVDSDDQWGEYSCVFLPEPMGTANIQLHGPPRVKAVKSSEHINEGETAVLVCKSESVPPVTDWAWYKITDSGDKALMNGSESRFFVSSLQGRSELHIENLNMEADPGQYRCNGNSSEGSDQAVITLRVRSHLA
modifications: enzymatically monobiotinylated

What was measured:
Assay in all cases: SPR
Details in all cases: both partners purified
[1] = biological target: T3, gorilla basigin, entire ectodomain (gorilla, enzymatically monobiotinylated)
T3 construct: also called gorilla BSG; source: HEK293E, transient transfection, secreted, enzymatically monobiotinylated

[2] = biological target: B3
[3] = biological target: T1, P. falciparum P113, biotinylated bait
[4] = biological target: T2, P. falciparum RH5 (reticulocyte-binding …)
[5] = biological target: P. reichenowi RH5 (P. reichenowi, UniProt B4X6H6 1-535)
[6] = biological target: P. gaboni RH5 (P. gaboni)

With B1 the Kd [1] was 3 ± 0.3 µM and the Kd [2] was 2.3 ± 0.1 µM.

B2: binds [3].

With B3 the Kd [4] was 1.5 ± 0.2 µM.

B4 gave a Kd [5] of 4.3 ± 0.5 µM and a Kd [6] of 2.9 ± 0.1 µM.
